± gives the standard deviation of the averaged measurements.
Test system: ATP
Assay: switch fluorescence ratio, 500 uM ATP over buffer (Cy3 cluster intensity, sum of 5 cycles each) (fold (ratio)); higher = stronger signal-on switching upon ATP binding; sequences stand for … in TCGTCGGCAGCGTCAGATGTGTATAAGAGACAGTTTTTTTTTTTTTTTTTTTTTTTTT…TC
Conditions: aptamer strand: ATP DNA aptamer (quencher-CACCTGGGGGAGTATTGCGGAGGAAGG + anchor), 100 nM annealed; ATP concentration: 500 uM
How it was run: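 Values give the fluorescence ratio for each switch-domain sequence, averaged from per-cluster ratios of summed target-cycle to summed buffer-cycle Cy3 intensity. The Cy3-labelled switching-strand clusters sat on a modified Illumina MiSeq flow-cell, were annealed to 100 nM quencher-labelled ATP aptamer, and were imaged in selection buffer, then after 15 min with 500 uM ATP at 22 °C. Five cycles ran with NaOH stripping and re-annealing between them, and clusters outside 100-1000 RFU were excluded.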
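Also: ATP exposure 15 min at 22 °C before imaging.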

Sequence	switch fluorescence ratio
TCGGTTGTGA	0.999 ± 0.011
TCGGTTTTTA	1 ± 0.043
TCGTAAAGAG	1.022 ± 0.0069
TCGTAAAGGG	1.01 ± 0.022
TCGTAAAGTT	0.955 ± 0.02
TCGTAACAGG	1.01 ± 0.034
TCGTAAGGAA	1.01 ± 0.02
TCGTAATAGG	1.118 ± 0.011
TCGTAATCGC	1.4113 ± 0.0014
TCGTAATGTG	1.03 ± 0.033
TCGTACTTTT	0.989 ± 0.05
TCGTAGCTGT	1.18 ± 0.052
TCGTAGGAGC	1.03 ± 0.02
TCGTAGGGTT	1.01 ± 0.04
TCGTAGGTGG	1.02 ± 0.063
TCGTATTTGG	0.993 ± 0.032
TCGTCCTTTT	0.976 ± 0.03
TCGTCGTAGC	1.05 ± 0.072
TCGTCTGTGG	0.974 ± 0.029
TCGTGAGGTG	1.02 ± 0.068
TCGTGAGTGG	0.975 ± 0.021
TCGTGCGGGT	1.001 ± 0.0081
TCGTGCTTGG	1 ± 0.029
TCGTGGCGCT	0.995 ± 0.048
TCGTGGGACT	1.07 ± 0.12

Sequence	switch fluorescence ratio
TCGTGGGGGC	1.07 ± 0.14
TCGTGGTGTT	1.03 ± 0.021
TCGTGTGGAG	1.01 ± 0.033
TCGTGTTAGG	1.02 ± 0.022
TCGTTAAATT	0.988 ± 0.035
TCGTTAGAAG	0.9966 ± 0.0052
TCGTTAGAAT	0.948 ± 0.013
TCGTTATATT	0.98 ± 0.015
TCGTTCAGTA	0.958 ± 0.014
TCGTTCGGCA	1.06 ± 0.032
TCGTTCTTTT	0.966 ± 0.019
TCGTTGAATG	0.956 ± 0.014
TCGTTGGCAA	2.3 ± 0.23
TCGTTGTGCT	0.964 ± 0.027
TCGTTTTACT	1.34 ± 0.44
TCGTTTTGCG	0.9977 ± 0.0086
TCTAACCTGG	1.006 ± 0.0042
TCTAAGGGA	1.01 ± 0.018
TCTAATTACA	1.04 ± 0.073
TCTACGGGAT	2.54 ± 0.2
TCTACTAT	1.06 ± 0.031
TCTACTTTAC	1.39 ± 0.15
TCTAGAGGGT	1.01 ± 0.028
TCTAGCAGTT	1.048 ± 0.0014
TCTAGCCCTG	1.06 ± 0.073

Sequence	switch fluorescence ratio
TCTAGCCGCG	1.016 ± 0.0044
TCTAGGGCGC	1.01 ± 0.053
TCTAGTTAAA	0.986 ± 0.0074
TCTATAATCG	0.977 ± 0.034
TCTATACCAC	1.06 ± 0.014
TCTATGCATG	1.04 ± 0.029
TCTATGCTTC	1.9 ± 1.1
TCTATGTTAT	0.999 ± 0.027
TCTATTATTG	0.98 ± 0.011
TCTATTGGCT	1.016 ± 0.0049
TCTATTGGGA	0.981 ± 0.028
TCTATTTGTG	0.966 ± 0.02
TCTCAAGGCG	1.03 ± 0.0089
TCTCAAGTGC	1.118 ± 0.0083
TCTCAGTGTT	1.028 ± 0.0064
TCTCATAGTA	0.997 ± 0.047
TCTCATCGGG	1.014 ± 0.0037
TCTCATTACG	1.012 ± 0.0094
TCTCCAGGGG	2.3 ± 2.1
TCTCCTGGGA	1.03 ± 0.018
TCTCGCCGGG	1.02 ± 0.031
TCTCGGGGGG	1.02 ± 0.065
TCTCGTACCT	1.19 ± 0.12
TCTCTTTCTG	0.9729 ± 0.0073
TCTGAAAACT	1.06 ± 0.0013

Sequence	switch fluorescence ratio
TCTGAAATAA	1.08 ± 0.048
TCTGAACAGG	1.03 ± 0.014
TCTGAACGGG	1.02 ± 0.011
TCTGAGGTAT	1.03 ± 0.034
TCTGAGGTGC	1.06 ± 0.046
TCTGATGCGT	1.03 ± 0.0038
TCTGATTATA	0.987 ± 0.024
TCTGATTGTG	0.972 ± 0.047
TCTGCACATT	1.07 ± 0.025
TCTGCTTTTG	1.05 ± 0.02
TCTGGAAGGT	1.04 ± 0.053
TCTGGATAGG	0.9625 ± 0.0058
TCTGGATATT	1.01 ± 0.025
TCTGGCAGAT	1.01 ± 0.028
TCTGGGAGGC	1.01 ± 0.021
TCTGGGAGGT	0.975 ± 0.02
TCTGGGGGAA	1.06 ± 0.15
TCTGGGTGGA	0.994 ± 0.015
TCTGGTAATT	1 ± 0.02
TCTGGTATGG	0.994 ± 0.0034
TCTGGTCATG	0.995 ± 0.014
TCTGGTGAAA	1.02 ± 0.054
TCTGGTGACG	1.04 ± 0.054
TCTGGTTGT	0.992 ± 0.028
TCTGGTTGTA	0.995 ± 0.051

Sequence	switch fluorescence ratio
TCTGTAAGAA	1.03 ± 0.041
TCTGTAAGGG	0.9783 ± 0.0076
TCTGTAAGGT	0.986 ± 0.02
TCTGTCTCTG	1.01 ± 0.014
TCTGTGGGGG	1.01 ± 0.016
TCTGTGGGTT	0.973 ± 0.051
TCTGTGTTGG	0.98 ± 0.02
TCTGTTCATG	1.001 ± 0.0081
TCTGTTGGAC	0.997 ± 0.024
TCTTAACGGC	1.04 ± 0.05
TCTTACGAAG	1.27 ± 0.27
TCTTACGGCT	1.03 ± 0.033
TCTTAGGCTG	1.01 ± 0.018
TCTTAGGTTG	1.028 ± 0.0062
TCTTAGTTCA	0.9825 ± 0.0062
TCTTATGTTA	0.989 ± 0.021
TCTTCTGGGA	1.026 ± 0.0038
TCTTGAGGGG	0.982 ± 0.034
TCTTGATTGT	0.974 ± 0.017
TCTTGCTTC	1.0084 ± 0.00091
TCTTGGCACA	1.036 ± 0.0061
TCTTGGGGCA	1.01 ± 0.019
TCTTGGGTTT	0.992 ± 0.012
TCTTGGTTGA	0.968 ± 0.02
TCTTGTCGTT	1.019 ± 0.0077

Sequence	switch fluorescence ratio
TCTTGTGAGG	1.04 ± 0.13
TCTTGTTTGA	1.008 ± 0.0059
TCTTGTTTGG	0.994 ± 0.049
TCTTTATATT	1.02 ± 0.048
TCTTTATTAA	0.989 ± 0.011
TCTTTCACGC	1.09 ± 0.085
TCTTTCTGGG	1.03 ± 0.021
TCTTTGACAG	1.02 ± 0.015
TCTTTGACGC	1.21 ± 0.013
TCTTTGATGA	0.983 ± 0.051
TCTTTGGGGA	1.04 ± 0.04
TCTTTGTCGG	0.977 ± 0.029
TCTTTTTATA	1.04 ± 0.017
TCTTTTTCCC	1.01 ± 0.022
TCTTTTTGTT	0.99 ± 0.018
TGAAAAAAAA	0.971 ± 0.025
TGAAAAAAT	0.977 ± 0.051
TGAAAAAATC	0.987 ± 0.019
TGAAAACACC	1.13 ± 0.15
TGAAAACGGG	1.022 ± 0.0095
TGAAAATAGT	0.965 ± 0.029
TGAAACTTGT	1.01 ± 0.041
TGAAAGATGT	1.01 ± 0.035
TGAAAGCACA	1.11 ± 0.06
TGAAAGCCCG	1.048 ± 0.0056

Sequence	switch fluorescence ratio
TGAAAGTATT	1 ± 0.022
TGAAATAGGA	1.01 ± 0.039
TGAAATATTC	0.993 ± 0.019
TGAAATGATG	0.9977 ± 0.0082
TGAAATGGCT	0.997 ± 0.034
TGAAATTACG	1.03 ± 0.022
TGAAATTACT	1.05 ± 0.033
TGAACGACAG	1.031 ± 0.0093
TGAACTGCTG	1.017 ± 0.0049
TGAACTTGAG	1.01 ± 0.0062
TGAAGAAAGG	0.981 ± 0.02
TGAAGATATA	0.99 ± 0.015
TGAAGATATT	0.993 ± 0.023
TGAAGCATCC	1.822 ± 0.0073
TGAAGCTGCC	1.28 ± 0.042
TGAAGCTTTA	1.06 ± 0.048
TGAAGGATGA	0.9978 ± 0.0058
TGAAGGGCGT	0.9927 ± 0.0081
TGAAGGGGAA	1.02 ± 0.061
TGAAGGGTGA	1.007 ± 0.0094
TGAAGGGTTG	1.01 ± 0.026
TGAAGTATGA	1.03 ± 0.045
TGAAGTATTT	1 ± 0.037
TGAAGTTAGT	0.975 ± 0.03
TGAAGTTTTA	0.989 ± 0.025

Sequence	switch fluorescence ratio
TGAATAAAGC	1.05 ± 0.02
TGAATACTTT	0.996 ± 0.044
TGAATCTTGG	1.02 ± 0.044
TGAATGGGGA	1.01 ± 0.029
TGAATGGTCT	1.01 ± 0.03
TGAATTTCTT	0.986 ± 0.022
TGAATTTTAT	0.9885 ± 0.0073
TGAATTTTGT	0.978 ± 0.036
TGACAAAGGG	0.988 ± 0.024
TGACACAGGA	1.04 ± 0.024
TGACAGCCTT	1.068 ± 0.0032
TGACAGGGGA	1.02 ± 0.033
TGACAGTGAA	1.01 ± 0.02
TGACATTCGA	1.0321 ± 0.00051
TGACCAGGCA	1.05 ± 0.056
TGACCGTTTT	0.999 ± 0.025
TGACGACGCC	4.6 ± 0.054
TGACGAGCGA	2.25 ± 0.24
TGACGAGTAA	1.5 ± 0.28
TGACGGATGC	1.197 ± 0.01
TGACGGTAGC	1.06 ± 0.056
TGACGGTTTA	1.023 ± 0.0016
TGACGTACCC	1.7 ± 0.05
TGACGTGCGT	1.02 ± 0.012
TGACTAAACA	1.056 ± 0.0059
